Columns and labels:
Assay in all cases: SPR; Biacore 3000; hIgG, hIgM or hIgA amine-coupled to CM-5 chips (10 mM sodium acetate, pH 5.0, 4.5 or 4.0); LD5 or SpA as analyte in serial 1:2 dilutions from 1.25 and 0.8 uM; flow 40 ul/min; NaCl/HEPES with 0.005% surfactant P20; regeneration 100 mM alanine-HCl pH 2.5
[1] = biological target: human IgA (human)
[2] = biological target: human IgM (human)
[3] = biological target: human IgG (human)

staphylococcal protein A (SpA) (from UniProt P02976 37-485) (natural protein)
Kd [1]: 7.03 nM
koff [1]: 0.00292 s⁻¹
kon [1]: 416000 M⁻¹ s⁻¹
Kd [2]: 7.15 nM
koff [2]: 0.000817 s⁻¹
kon [2]: 115000 M⁻¹ s⁻¹
Ka [3]: 3.45e+09 M⁻¹
Kd [3]: 0.29 nM
koff [3]: 4.4e-05 s⁻¹
kon [3]: 154000 M⁻¹ s⁻¹

From PMC3077374
